From patent US9228015B2, “Nogo receptor antagonists and methods of increasing neurite outgrowth” (Biogen Idec MA Inc., priority 2006, dated 2016)

T1: OM-gp + sNogoR344-Fc (Rattus norvegicus, UniProt Q99M75, A303T/C287S/C43R/E284G/T53A)
T1 construct: amino acid residues 26-344 of rat Nogo receptor-1; made in house; CHO (DG44) is described only for sNogoR310-Fc
T1 sequence (Q99M75 26-344 C43R/T53A/E284G/C287S/A303T): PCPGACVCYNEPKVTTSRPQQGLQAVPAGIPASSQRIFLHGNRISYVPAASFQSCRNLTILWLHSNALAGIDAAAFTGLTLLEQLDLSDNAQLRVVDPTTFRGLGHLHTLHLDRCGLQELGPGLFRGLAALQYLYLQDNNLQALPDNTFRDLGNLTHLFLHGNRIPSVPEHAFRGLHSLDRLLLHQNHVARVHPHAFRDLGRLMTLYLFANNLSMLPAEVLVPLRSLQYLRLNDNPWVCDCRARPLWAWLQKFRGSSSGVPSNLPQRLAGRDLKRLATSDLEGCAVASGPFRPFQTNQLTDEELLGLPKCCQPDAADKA

T2: MAG + sNogoR344-Fc (Rattus norvegicus, UniProt Q99M75, A303T/C287S/C43R/E284G/T53A)
T2 construct: amino acid residues 26-344 of rat Nogo receptor-1; made in house; CHO (DG44) is described only for sNogoR310-Fc
T2 sequence (Q99M75 26-344 C43R/T53A/E284G/C287S/A303T): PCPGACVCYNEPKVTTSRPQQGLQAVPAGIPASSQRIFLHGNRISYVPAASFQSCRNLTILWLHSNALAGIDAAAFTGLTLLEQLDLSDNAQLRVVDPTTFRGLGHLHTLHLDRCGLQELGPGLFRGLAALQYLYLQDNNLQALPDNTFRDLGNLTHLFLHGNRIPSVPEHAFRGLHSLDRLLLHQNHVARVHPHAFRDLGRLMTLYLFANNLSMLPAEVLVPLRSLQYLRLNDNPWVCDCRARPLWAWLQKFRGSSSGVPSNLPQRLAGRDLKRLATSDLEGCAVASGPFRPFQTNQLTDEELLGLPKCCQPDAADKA

T3: Nogo66 + sNogoR344-Fc (Rattus norvegicus, UniProt Q99M75, A303T/C287S/C43R/E284G/T53A)
T3 construct: amino acid residues 26-344 of rat Nogo receptor-1; made in house
T3 sequence (Q99M75 26-344 C43R/T53A/E284G/C287S/A303T): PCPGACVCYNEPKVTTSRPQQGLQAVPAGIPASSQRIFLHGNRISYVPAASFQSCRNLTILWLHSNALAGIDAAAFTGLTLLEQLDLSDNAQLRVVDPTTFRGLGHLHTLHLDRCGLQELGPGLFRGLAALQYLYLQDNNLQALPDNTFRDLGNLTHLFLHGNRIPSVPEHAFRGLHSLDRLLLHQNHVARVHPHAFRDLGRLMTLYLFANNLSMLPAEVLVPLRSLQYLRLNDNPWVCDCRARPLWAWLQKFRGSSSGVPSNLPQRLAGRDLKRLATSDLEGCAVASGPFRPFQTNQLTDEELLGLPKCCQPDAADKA


Columns and labels:
[1] = system: chick dorsal root ganglion neurons, myelin-induced neurite outgrowth inhibition; test: Neurite outgrowth of embryonic day 13 chick DRG neurons on myelin (Example 29); type: cell-based; conditions: 8 μM NgR(310)ecto-Fc; MP 10 μg/nl as printed
Procedure: In investigating combined treatment with methyprednisolone (MP) and NgR(310)ecto-Fc for spinal cord injury (SCI), we sought to verify that these reagents have independent mechanisms of action. Briefly, myelin was dried overnight in poly-L-lysine-precoated plates (Becton Dickinson, Bedford, Mass., USA) at 80 or 400 ng/well (2.5 and 12.7 ng/mm^2, respectively). Wells were then coated with 10 µg/ml laminin (Calbiochem, La Jolla, Calif., USA) for 1 hour at foom temperature (22-24 C). Embryonic day 13 chick dorsal root ganglion neurons were dissociated and plated for 6-8 hours as previously described (GrandPre et al., 2000; Fournier et al., 2001). Neurons were treated with 8 μM NgR(310)ecto-Fc in the presence or absence of 10 μg/nl MP (Pharmacia, Kalamazoo, Mich., USA) for the entire outgrowth period. Neurons were then fixed and stained with βIII tubulin antibody (Covance, Princeton, N.J., USA) and neurite outgrowth was quantified using an automated cellular imaging and analysis system (Axon Instrument, Union City, Calif.; USA). Neurite outgrowth per cell was normalized to the average of duplicate control wells for each experiment (n=3). […] These in vitro data support the hypothesis that MP and NgR(310)ecto-Fc will enhance SCI recovery in a sequentially effective manner.

OM-gp + sNogoR344-Fc = molecular target: T1, OM-gp + sNogoR344-Fc; test: ELISA: inhibition of OM-gp binding to sNogoR344-Fc
Procedure: (§1) 0.5 μg of a soluble Nogo receptor-1 fusion protein comprising amino acid residues 26-344 of rat Nogo receptor-1 and the hinge and Fc region of the rat IgG1 molecule (sNogoR344-Fc) produced as described below was immobilized on […] of protein-A- or wheatgerm agglutinin-conjugated SPA beads (Amersham Pharmacia Biotech) for 2 hours at 25° C. SPA beads coupled with Fc-sNogoR-1, anti-Nogo receptor-1 mAb and 1 μl ^125I-Nogo66 (Amersham, 2000 Ci/mmol, 1 nM) in […] of the HEPES-buffered incubation medium (10 mM HEPES, pH 7.4, 0.1% bovine serum albumin, 0.1% ovalbumin, 2 mM MgCl2, 2 mM CaCl2 and protease inhibitors) was added to each sample well. After 16 hours, radioactivity was measured in quadruplicate samples using a TopCount® (Packard). IC50 values were calculated from a curve-fit analysis (FIG. 3) (PRISM, GraphPad Software, NJ). In some experiments, we also used AP-ligand conjugates (e.g. AP-Nogo66) and detected binding by monitoring alkaline phosphatase activity. We also assayed the ability of the mAbs to block binding of the ligands MAG-Fc and AP-OM-gp to Nogo receptor-1.
(§2) Monoclonal antibodies 7E11, 5B10, 1H2, 3G5 and 2F7 all inhibited binding of Nogo66, MAG and OM-gp to sNogoR344-Fc. The calculated IC50 for Nogo66 for 7E11 and 1H2 were 400 nM and 60 nM, respectively. The data from ELISAs monitoring mAb-mediated inhibition of binding of the three ligands to Nogo receptor-1 are summarized in Table 6.
(§3) The percent displacement is shown at 30 nM antibody and the EC50 for certain mAbs determined from curve-fit analysis as described. “-” indicates no detectable activity and “ND” indicates not determined.
(§4) We also performed ELISA binding assays using the Fab-phage 141)5.

[2] = system: DRG neurons, myelin-mediated inhibition of neurite outgrowth; test: Neurite outgrowth assay, P3-4 rat DRG neurons, myelin mixed with test protein (Example 10); type: cell-based; conditions: mixed with CNS myelin, FIGS. 9-11
Procedure: Lab-Tek® culture slides (4 wells) were coated with 0.1 mg/ml poly-D-lysine (Sigma®). CNS myelin alone or mixed with sNogoR310, sNogoR310-Fc fusion protein, mAb 5B10 or control PBS were separately spotted as 3 μl drops. Fluorescent microspheres (Polysciences) were added to the myelin/PBS to allow later identification of the drops (Grandpre et al., Nature 403:439-444 (2000)). Lab-Tek® slides were then rinsed and coated with 10 μg/ml laminin (Gibco™).
Dorsal root ganglions (DRG's) from P3-4 Sprague Dawley rat pups were dissociated with 1 mg/ml collagenase type 1 (Worthington), triturated with fire-polished Pasteur pipettes pre-plated to enrich in neuronal cells and finally plated at 23,000 cells/well on the pre-coated Labtek culture slides. The culture medium was F12 containing 5% heat inactivated donor horse serum, 5% heat inactivated fetal bovine serum and 50 ng/ml mNGF and incubated at 37° C. and 5% CO2 for 6 hours.
Slides were fixed for 20 minutes with 4% paraformaldehyde containing 20% sucrose and stained for the neuronal marker anti beta-III-tubulin (Covance TUJ1) diluted 1:500. As secondary antibody anti-mouse Alexa Fluor® 594 (Molecular Probes) was diluted 1:300 and slides were coverslipped with Gel/Mount™ (Biømeda™). 5× digital images were acquired with OpenLab™ software and analyzed by using the MetaMorph® software for quantification of neurite outgrowth.

[3] = molecular target: T4, panel of Nogo receptor-1 polypeptides (sNogoR310-Fc, sNogoR344-Fc, p-617, p-618, p-4, p-5) (Rattus norvegicus, UniProt Q99M75); test: Antibody specificity ELISA with a panel of Nogo receptor-1 polypeptides; type: binding
T4 construct: made in house
Text: To determine the specificity of the monoclonal and Fab-phage antibodies produced in Examples 1 and 2, we performed an ELISA using a panel of Nogo receptor-1 polypeptides. The panel consisted of sNogoR310-Fc (a fusion protein comprising amino acids 26-310 of rat Nogo receptor-1 and a rat Fc fragment), sNogoR344-Fc (see supra), polypeptide p-617 (SEQ ID NO: 1), polypeptide p-618 (a 19-amino acid polypeptide from the LRR7 region of rat Nogo receptor-1; FIG. 2; SEQ ID NO: 11) and polypeptides p-4 and p-5 (polypeptides from the LRR5 and LRRCT regions of Nogo receptor-1, respectively). Ovalbumin and BSA were used as controls.

MAG + sNogoR344-Fc = molecular target: T2, MAG + sNogoR344-Fc; test: ELISA: inhibition of MAG binding to sNogoR344-Fc
Procedure: as §1, §2, §3, §4

Nogo66 + sNogoR344-Fc = molecular target: T3, Nogo66 + sNogoR344-Fc; test: ELISA: inhibition of Nogo66 binding to sNogoR344-Fc
Procedure: as §1, §2, §3, §4

Row | inhibition of binding of OM-gp to sNogoR344-Fc (OM-gp + sNogoR344-Fc) | binding to polypeptide p-617 (SEQ ID NO: 1) [3] | inhibition of binding of MAG to sNogoR344-Fc (MAG + sNogoR344-Fc) | inhibition of binding of Nogo66 to sNogoR344-Fc (Nogo66 + sNogoR344-Fc) | Molecule | effect on neurite outgrowth on a myelin substrate [1] | protection of DRG neurons from myelin-mediated inhibition of neurite outgrowth [2]
1 | – | – | – | – | C[C@H]1C[C@@H]2[C@H]([C@@H](O)C[C@@]3(C)[C@H]2CC[C@]3(O)C(=O)CO)[C@@]2(C)C=CC(=O)C=C12 [MP, methylprednisolone, reference compound] | no effect | –
2 | inhibited | specifically bound | inhibited | inhibited | 5B10: murine monoclonal anti-Nogo receptor-1 antibody, immunogen rat Nogo receptor-1 residues 110-125, ATCC PTA-4588 (antibody, V domains shown, not fully specified; 5B10 heavy chain; 5B10 light chain) VH: LQXSGAEIVMPGTAVTMSCKASGYTFTDFWMHWVKQRPGQGLEWIGAIDPSDSYSRINQKFKGKATLTVDESSSTAYMQLSSLTSEDSAVYYCARRITEAGAWFAYWGQGTTVT VL: MKLPVRLLVLMFWIPASSSDVVMTQTPLSLPVSLGDQASISCRSSQSLVHSNGYTYLHWYLQRPGQSPKLLIYKVSNRFSGVPDRFSGSGSGTDFTLKISRVDAEDLGVYFCSQSTHVPYTFGGGTKLEIKRADAAPTVSISHH | – | protected
